Substrate in this data set: NC(=O)C1=CN([C@@H]2O[C@H](COP(=O)(O)OP(=O)(O)OC[C@H]3O[C@@H](n4cnc5c(N)ncnc54)[C@H](OP(=O)(O)O)[C@@H]3O)[C@@H](O)[C@H]2O)C=CC1
Nature of the data set: purified protein. The following applies: reduction of cinnamaldehyde; varied: cofactor.

B1: NtDBR (Nicotiana tabacum) (protein)
chain: MAEEVSNKQVILKNYVTGYPKESDMEIKNVTIKLKVPEGSNDVVVKNLYLSCDPYMRSRMRKIEGSYVESFAPGSPITGYGVAKVLESGDPKFQKGDLVWGMTGWEEYSIITPTQTLFKIHDKDVPLSYYTGILGMPGMTAYAGFHEVCSPKKGETVFVSAASGAVGQLVGQFAKMLGCYVVGSAGSKEKVDLLKSKFGFDEAFNYKEEQDLSAALKRYFPDGIDIYFENVGGKMLDAVLVNMKLYGRIAVCGMISQYNLEQTEGVHNLFCLITKRIRMEGFLVFDYYHLYPKYLEMVIPQIKAGKVVYVEDVAHGLESAPTALVGLFSGRNIGKQVVMVSRE
For orientation: Km means the concentration of substrate that gives half-maximal velocity. With B1, the Km amounted to 91 µM and the kcat is on record as 40 min^–1.

Values taken from publication PMC4731831, “Better than Nature: Nicotinamide Biomimetics That Outperform Natural Coenzymes” (Journal of the American Chemical Society, 2016).
